# According to the DeepSol protein solubility set:
# Assay: soluble on expression in E. coli; label from the status in PepcDB or PDB records
row,Sequence,soluble on expression in E. coli
1,MAHHHHHHMCEKDDITVNEEILQKAQEFQVENEKDIKMKKLKPITEGLLKPEVDLLQISERGSRGRVKICNVLNVPRSEKEYNNNNSDKVENKYIGKIITVCGWSKAIRKQGGGRFCFVNLNDGSCHLNLQIVVNQCIENYEKLLKCGAGCCFRFTGELIISPVQNDNNKKGLLKENVELALNNNDIHNFEIYGENLDPQKYPLSKKNHGKEFLREVAHLRPRSYFISSVIRIRNSLSIATHLFFQSRGFLYIHTPLITTSDCEGGGEMFTVTTLLNENGDIRSIPRINLKNKKKEKREDILNEKNGKKDHMNDSLNNNTCNNNNNNGNSSSSNIVSSPQYEDNYLIDYKKDFFSKQAFLTVSGQLSLENLCSSMGDVYTFGPTFRAENSHTSRHLAEFWMIEPEIAFADLYDNMELAEAYIKYCIDYVLNNNFHDIYYFEENVETNLIKRLKNILNEDFAKITYTNAIEILQNYSDSFEVKVEWGMDLQSEHERFIAEKIFKKPVIVYNYPKDLKAFYMKLNEDNKTVAAMDVLVPKIGEVIGGSQREDNLERLDKMIKEKKLNIDSYWWYRQLRQYGSHPHAGFGLGFERLIMLVTGVDNIKDTIPFPRYPGHAEF,soluble
2,MAHHHHHHMDSTYKEPSSAAVPTSYAVLSLPSKATMRRKGYNPDEVNYNGGLATHPLATWKTFSLPDGCTYKDAVSAVQTANAKPWGPIKIRLNFSDGRYEQFERVAPSVMDSLQSTTTYSPNDAFKAETLSLSTMRRAQQQPRLRPLVDERGHHLSNKPIPRTFAPEELYKNCPPPVLSQPGYDFTPISYNTFLLNPQDPPHGVRNVQSNFMHSSCDYRPRSYLRPEQATGTSHASRHCHCNEVFQVGDHTMDFACEGTTVDHRNRLVKKDYSPVGTLKANSSIVGRRHARKPRFGCTGVADSQTVAAAVAPAADEETA,soluble
3,MAHHHHHHMDTDKIKKRINAYNQDGIRNSALAIILCHRYEYPHLLLLQNIESQTYHLLSGKYKSWEKPREVLKKKLQKYVNQIRDMHFGTSHFNTEEKETEDPIEIGEFLGEWWKTQFNSVYLPYLPAHITRPKEYIRLYQVTLTSRCIFHLPPGFTLKALPLFDLSTCGVAIGGLTSVLSRFKLHCMVPVEE,not soluble
4,MAHHHHHHMDVKLGTIISRFTFTLPSLYDDGRDDYDATVSSPDDAATEESCGVAFTSGTHCDEARKTPKTTQAGSRSHVARFGAPASPTEKLDITGAYAFVSHGGAASSASLAAPSSPPPLLGRAAARGDRNNSTVAAPQHDVGDRGGGAVRYGTSLHLPDLVQLAAHAWNVELHCGSTGAASHCVLRLPPFVLGSTLYRGPVVYVLASGVVRMATHGSVAATELLARRVRDALHEACKPLAVRRAAREELLLMRAVLEDSLSDMLEDEGGEEGPARHLCTAVLKAEARLPSSGVSLSTALAADTAMSSQHGRRAAFGSSAAAARIGPMARDKAGHGLPTLVSTPSVLSARGCKIDFLQAVATPRWDEIVGLRASLFAPASAAPGSENSGGGGVAKADRDAEGAPRVSVRRASVNVRGDAPMEWWRWYLGVQADDHGVGGGDGSGAARRGGGAPSAAAANSEEPFPGDCSGVPLLGSWLSGDASEGGNADARSSNKTTGFWTCAGYADASPENAASFVHFLQRRRALLAHHVASFKLRRQATQNSLQILLDWRTATPPTPPAPPAPLSAAAAPLMGRPPLARALVGHPMAVAQPLPDSGTPSVPAAPTRTNISGNTWVTEASAANFFMESTFIAESAAPFELESVRMPTDRMSSADPALPVSMALGDRNVANPCGSTALAPDSGCGSMSALLEPSVGHSVLRYDSSSSKDDRTAAKAAPEKRMRGVAAAQASAANRDEAASAAMEHVTCLIHRTGRVQMTAASELALRQMCAMLLIPFLVATAEVEL,not soluble
5,MAHHHHHHMEEHPKILSIAGSDSCAGAGMQADLKTAMSLGCHCCTILVVLTAQNTKEVKSIIEVDEKFIVEQLDAIFTDITIEVVKLGVLYSKKIISLIHNYITNINKMREKKLLVVFDPVFVSSSGCMLVENLDYVKYALDLICPLSCIITPNFYECKVILEALNFNIDINNMRTSDLCKLVTEKLNINACLFKSCNIDINTEDENKLYAVDHLCIKNDNDYDTKIKQNISYDVYKLKSKRNPQKDIHGTGCTLSTAISCFLSKKYDIIQACIESKKYIYNCINYAYDLGSKSQGLNHLKAAQHLTDFRELQVIKVD,soluble
6,MAHHHHHHMEFLVADAERMYTVNGRLQHLSYWSYKILARSFLESYQNPPLLNSNRAAQNFSKGSGYVDFCTWHRYSEFEWLAAQVELEFPGMLFPPIPSKETDGTVDKFTELLTSVKENNSTTRENPLVKKRMRHLQLTFNAIAQLHELHESPLLKAFVTLDELSWCAFREEREKKMKTSILTIFKAKGLSIIAKLRSFRESSNHDYTLDSPLDSVATRQSDLGELLNTCFAQVEYINKYCISEWRHWSDVNKLRGSIQGSPMPWTACYGGHHVQHSKHPGLEGVVREINNDAAVVEWNGQGGKLSKVPLDELNYPSSGISDPAIFALQELASQVESYFMYLSRSSGVAVLRDVEDLLWFLSSYANRCVRVIRRFREMRSEVRYLTRVVEKKASVEQFEQLERLKQILSKGTSRFMEQYNNFYRCFMRNSLMEVAHKFGRVITVIMSDDQWNERLSVAKTMLTLSLPLLPEEREEIFAEDASKRDSPPMKQVNGLEG,soluble
7,MAHHHHHHMEGEEYDKILVLNFGSQYFHLIVKRLNNIKIFSETKDYGVELKDIKDMNIKGVILSGGPYSVTEAGSPHLKKEVFEYFLEKKIPIFGICYGMQEIAVQMNGEVKKSKTSEYGCTDVNILRNDNINNITYCRNFGDSSSAMDLYSNYKLMNETCCLFENIKSDITTVWMNHNDEVTKIPENFYLVSSSENCLICSIYNKEYNIYGVQYHPEVYESLDGELMFYNFAYNICKCKKQFDPIRYHELELKNIEKYKHDHYVIAAMSGGIDSTVAAAYTHKIFKERFFGIFIDNGLLRKNEAENVYTFLKSTFPDMNITKIDASENFLSNLQGVTDPEQKRKIIGKLFIEEFEKAVNNIDIDINKTFLLQGTLYPDIIESKCSKNLSDTIKTHHNVGGLPKNLKFKLFEPFKYLFKDDVKTLSRELNLPEEITNRHPFPGPGLAIRVIGEINKHKLNILREVDDIFINDLKQYGLYNQISQAFAVLLSSKSVGVRGDARSYDYVCVLRAVKTSSFMTANWYQIPYDILDKITTRILSEVKGVNRILYDVSSKPPATIEFE,soluble
8,MAHHHHHHMEHVNANEKNGYLASEKNELTKNKVEEHTYDYDYVVIGGGPGGMASAKEAAAHGARVLLFDYVKPSSQGTKWGIGGTCVNVGCVPKKLMHYAGHMGSIFKLDSKAYGWKFDNLKHDWKKLVTTVQSHIRSLNFSYMTGLRSSKVKYINGLAKLKDKNTVSYYLKGDLSKEETVTGKYILIATGCRPHIPDDVEGAKELSITSDDIFSLKKDPGKTLVVGASYVALECSGFLNSLGYDVTVAVRSIVLRGFDQQCAVKVKLYMEEQGVMFKNGILPKKLTKMDDKILVEFSDKTSELYDTVLYAIGRKGDIDGLNLESLNMNVNKSNNKIIADHLSCTNIPSIFAVGDVAENVPELAPVAIKAGEILARRLFKDSDEIMDYSYIPTSIYTPIEYGACGYSEEKAYELYGKSNVEVFLQEFNNLEISAVHRQKHIRAQKDEYDLDVSSTCLAKLVCLKNEDNRVIGFHYVGPNAGEVTQGMALALRLKVKKKDFDNCIGIHPTDAESFMNLFVTISSGLSYAAKG,not soluble
9,MAHHHHHHMELSKYAGLSSERLDCLRNLDIRKRSIYKGSTFSYGNNIYDILHNYSDKQKENKSDGVSVAHDYKDFQRNIKFAGLESEIKNDINIRNRRIKNDMNYRNDNLKDILQNNMNEQNINNSKYFLSDKGYVLTPKRCLARHVDDSEINKYFSTKYAVTDSSTGRTEIMVERKPGCSNIIVQNFSEFDAYGTYKKKDERINRRDSFVHTKMGIVPRDGSCIDNNKCKAQATFTHIHRRDNIAPDNYWLCPTIESDKKNKTKR,not soluble
10,MAHHHHHHMEQQGDSEAKEHGELTRNGITDNAYDNSVGAFNRTILDRYAHWMTQLDQGACGLRIWKAEELWKRYERVIRVGRGSFGSVFIVYDTERKAYLTVKCMELLGKPGPALRSLSQPTLREVILLSQIDHPNVVRLIDYYLTSDGMLHMCMPIVSHDLVSLIRIWKMRGPRGESSLGRMPLPTVKCVFRQLLRGLEYLHRRNIIHRDLKPSNVMLDDNGVVKIVDFGWARFVPRRWQGRLTGPPCVVTYRPPEILLGGQCSFKYDSSIDIWSAGCILYEMLTGGKAFSNARNEQQALAAITDMLGSPSSRSEVYYGAAGGSRLRPSKRQPRNFEERCRMVNMSNESIDFLGEMLQLEPNSRKSASQLLGHSWFSTSPLPCEPEEVSLPGSNTYRLLERKRTR,not soluble
